Biological target: activated complement component C3 (C3b) (UniProt P01024)
Test: SPR

Factor B (natural protein)
response (RU), median, C3b-chip 2: 17 RU
